Results from PMC8464830.

Experiments:
Assay in all cases: SPR
[1] = target: HIV-1 MA protein from clade D (94UG114.1), full-length (HIV-1 clade D (94UG114.1))
[2] = target: HIV-1 MA protein from clade B (LAI), full-length (HIV-1 clade B (LAI))
[3] = target: HIV-1 MA protein from clade B (NL4-3), full-length (HIV-1 clade B (NL4-3))

“human Calmodulin-1 (from UniProt P0DP23 1-149) (natural protein)” was tested, and the Kd [1] was 33.3 µM, the Kd [2] was 49 µM and the Kd [3] was 27.6 µM.
